We go through 18 molecules from patent US20240190986A1 (ZHEJIANG NANOMAB TECHNOLOGY CENTER, published 2024).

Sequences and labels used below:
B1: M344-IgG4 (antibody, V domains shown)
VH: QVQLVESGGGLVQSGGSLRLSCVASGSAFSFDAMGWYRQFSATRRERQLVVATSRDGRTYYADSVKGRFTATRDNSKNSLYLEMNSLKPEDTAIYYCAAGDDPKNYSWGQGTQVTVSS
notes: also called M344 heavy chain antibody
B2: M129-IgG4 (antibody, V domains shown)
VH: QVQLVESGGGSAQAGGSLILSCVASANLFTIDALGWYRQAPGPKRELVAAISSGGNKYYADAVKGRFTISRDTLTKTMWLQMNNLKPEDTAMYYCAAEDYGLGQRSWGMGTQVTVSS
notes: also called M129 heavy chain antibody
B3: M044-IgG4 (antibody, V domains shown)
VH: QVQVVESGGGFVQAGGSLRLSCAASTPIISIAYMGWYRQISEKERQLVATINSGGKTYYADSVKGRFTISRDNAKNTLYLQMNMLKPEDTGMYYCAASNKDYNDYDPDWGQGTQVTVSS
notes: also called M044 heavy chain antibody
B4: M003-IgG4 (antibody, V domains shown)
VH: QVQLVESGGGLVQAGGSLRLSCTASGNIFSINAMGWYRQPPGKEWERELVATISSTNSDNTYYKESVKGRFTISTNTAKNTWYLQMNSLKPEDTAMYYCAAENFDRKDRYWAQGTQVTVSS
notes: also called M003 heavy chain antibody
B5: M119-IgG4 (antibody, V domains shown)
VH: EVQLVESGGGLVQPGGSLRLSCVASGSDLSFDAMGWYRQFSATVRERQLVVATSRDGRIYYGDSVKGRFTASRDNLKNSVDLEMNNLKPEDTAIYYCAAGDDPKNYDWGPGTQVTVSS
notes: also called M119 heavy chain antibody
B6: M156-IgG4 (antibody, V domains shown)
VH: QVQLVESGGGLVQAGGSLRLSCAVSGISFEYYAIGWFRQAPGKEREAVSCTTSGTTSGGGVTDYADSLKGRFTISRDVAKNTVYLQMNNLTPEDTAVYYCAADIHCRGYVLFVPSDFGNWGQGTQVTVSS
notes: also called M156 heavy chain antibody
B7: M2339 (VHH)
VHH: QLQLGASGGGLVQPGGSLRLSCALSGFTLRELDEFAIGWFRQAPGKEREGVSCISGTGGITHYADSVKGRFTISRDIAKTTVYLQMNSLNSEDTAVYYCAADERCTDRLIRPPTYWGQGTQVTVSS
notes: Nanoantibody in TG1 supernatant in the screening ELISA; also called clone M2339
B8: M344 (VHH)
VHH: B1 VH
notes: Nanoantibody in TG1 supernatant in the screening ELISA; also called clone M344
B9: M224 (VHH)
VHH: QVQLVESGGGLVQPGGSLRLSCAASGFTFHYYAIGWFRQAPGKEREGVSCISSSGDSTWFSDSVKGRFTVSRDNAKNIVHLQMNNLKPEDTAVYYCAGTTRSGYVCYDAEPYDSWGQGTQVTVSS
notes: Nanoantibody in TG1 supernatant in the screening ELISA; also called clone M224
B10: M143 (VHH)
VHH: EVQLVESGGGLVQAGGSLRLSCSASEKTFSIKYMGYYRQGPGIERKLVATIDTDGKTWYADSVKGRFTISRENGENEIGLEMNRLKPEDTAMYYCAGETGTYPKPEYWGQGTQVTVSS
notes: Nanoantibody in TG1 supernatant in the screening ELISA; also called clone M143
B11: M191 (VHH)
VHH: QVQLVESGGGLVQAGGSLRLSCAASASMGSISNMGWYRQAPGKERGNERNLVATIGSDGRTYYADSVKGRFTISRDNVKNTMILQMNFLKPEDTAMYYCAVEDRQRPGTENYYWGQGTQVTVSS
notes: Nanoantibody in TG1 supernatant in the screening ELISA; also called clone M191
B12: M210 (VHH)
VHH: QVQLVESGGGLVQPGGSLRLSCAASGITLDNYAIAWFRQAPGKKREGVSCISSNGNTYYQPSVKGRFTIARDNAKNTVYLHMNNLNPEDTAVYYCQVGQFSSSTTPVQAMSVMSLYADWGQGTQVTVSS
notes: Nanoantibody in TG1 supernatant in the screening ELISA; also called clone M210
B13: M137 (VHH)
VHH: QVQLVESGGGLVQAGGSLSLSCAASGSLSSINAMGWYRQLPEMRQLVATMGSDGKTYYADSVKGRFTISRDYAKYTVSLQMNNLRPEDTAIYYCAADRFGAPIHDVDYWGKGTLVTVSV
notes: Nanoantibody in TG1 supernatant in the screening ELISA; also called clone M137
B14: M004 (VHH)
VHH: EVQLVESGGGLVQAGGSLRLSCAASESISSIAYMGWYRRISEKERNLVATISSTGSTYYADSVKGRFTISRDNAKNTMYLQMNRLKPEDTAIYYCAASNKAYNDYDPDWGQGTQVTVSS
notes: Nanoantibody in TG1 supernatant in the screening ELISA; also called clone M004
B15: M169 (VHH)
VHH: EVQLVESGGGTVQPGESLRLSCEASGAVSTINAMGWYRQTPEMRKLVATMGSGGNTYYADSVKGRFTISRDFAGNTVDLQMNDLKPEDTGVYFCAADKFGADIKEVAYWGKGTLVTVSS
notes: Nanoantibody in TG1 supernatant in the screening ELISA; also called clone M169
B16: M197 (VHH)
VHH: EVQLVESGGGLVQAGGSLRLSCAASGSHFGLNVVGWYRQAPGKQRELVASIGNSGRTTDYADSVKGRFTISKDNAQNTIYLQMNNLKPEDTAMYRCHLRVSVERGYWGQGTQVTVSS
notes: Nanoantibody in TG1 supernatant in the screening ELISA; also called clone M197
B17: M156 (VHH)
VHH: B6 VH
notes: Nanoantibody in TG1 supernatant in the screening ELISA; also called clone M156
B18: M2339-IgG4 (antibody, V domains shown)
VH: B7 VHH
notes: also called M2339 heavy chain antibody

T4 sequence (Q13421 other isoform, or with tags, fused parts or gaps limits assumed): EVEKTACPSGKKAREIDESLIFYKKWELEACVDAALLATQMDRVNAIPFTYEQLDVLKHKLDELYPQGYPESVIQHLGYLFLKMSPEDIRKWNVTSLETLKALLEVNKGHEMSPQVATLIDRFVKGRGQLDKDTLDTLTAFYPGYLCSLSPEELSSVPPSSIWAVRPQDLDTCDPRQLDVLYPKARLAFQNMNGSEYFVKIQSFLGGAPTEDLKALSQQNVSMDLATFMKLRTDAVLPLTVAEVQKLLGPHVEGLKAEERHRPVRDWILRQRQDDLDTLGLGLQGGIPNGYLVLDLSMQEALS

One assay deals with T1, MSLN on SKOV3 and Aspc-1 tumor cells (UniProt Q13421 296-598).
T1 construct: whole, on cells; Endogenous mesothelin of tumor cell lines; also called SKOV3 tumor cell line; AsPC-1 tumor cell line
Description: flow cytometry on SKOV3 tumor cells, anti-human IgG PE secondary, fitted curve. (A flow cytometer gives signals particle by particle.)
Turning to B1, the concentration for a half-maximal effect (EC50) (commonly the concentration giving half of the maximal effect) amounted to 1.36 nM.
On the same count and under the same terms, then B2, with 1.85 nM.
B3: a half-maximal response (EC50) required 0.512 nM.
Same read-out and setting: under B4 stands 1.62 nM; under B5, 1.63 nM.
In turn, B6 came in with an EC50 of 1.05 nM.

The target in a further assay is T2, MSLN·His protein (human, UniProt Q13421 296-580, limits assumed).
T2 construct: Bought protein; also called human MSLN·His antigen; not shown: His tag
T2 sequence (Q13421 other isoform, or with tags, fused parts or gaps limits assumed): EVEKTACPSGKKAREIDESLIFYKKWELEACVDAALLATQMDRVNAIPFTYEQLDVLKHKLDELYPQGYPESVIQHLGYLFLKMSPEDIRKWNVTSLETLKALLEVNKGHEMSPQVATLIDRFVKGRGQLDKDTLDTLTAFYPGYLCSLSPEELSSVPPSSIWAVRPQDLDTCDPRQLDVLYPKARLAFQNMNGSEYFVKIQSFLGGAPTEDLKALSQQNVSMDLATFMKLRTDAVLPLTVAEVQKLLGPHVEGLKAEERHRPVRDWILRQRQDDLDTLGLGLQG
The assay is described as follows: ELISA, antigen coated, TG1 supernatant. (In general: An ELISA detects its analyte on a solid surface through an enzyme-linked reagent.)
Regarding B7, the “ELISA (OD450)” value is 2.15 OD450.

The next assay deals with T3, MD50 protein.
T3 construct: range 487-580; also called proximal membrane fragment of mesothelin
T3 sequence (Q13421 495-588): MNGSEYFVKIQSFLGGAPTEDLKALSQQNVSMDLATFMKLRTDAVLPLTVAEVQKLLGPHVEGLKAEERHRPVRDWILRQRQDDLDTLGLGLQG
The assay is described as follows: ELISA, antigen coated, TG1 supernatant.
Take B8: the “ELISA (OD450)” value was 2.08 OD450.
On the same count and under the same terms, under B9 stands 1.78 OD450.
The same measure, in the same setting: then B10, with 1.3 OD450.
Still for that read-out and setting: under B11 stands 1.71 OD450; under B12, 0.823 OD450; under B13, 2.09 OD450.
Regarding B14, the “ELISA (OD450)” value worked out at 1.81 OD450.
The same measure, in the same setting: under B15 stands 1.19 OD450; under B16, 1.69 OD450; under B17, 1.53 OD450.

Another assay addresses T4, MSLN.Fc protein (human, UniProt Q13421 296-598, limits assumed).
T4 construct: also called MSLN·hFc; MSLN protein; not shown: human IgG Fc fragment
Description: ELISA, antigen coated, TG1 supernatant.
With B8, the “ELISA (OD450)” value is 2.22 OD450.
Regarding B9, the “ELISA (OD450)” value was found to be 1.45 OD450.
As for B10, the “ELISA (OD450)” value is 1.62 OD450.
On the same count and under the same terms, under B11 stands 1.69 OD450.
Consider B12, for which the “ELISA (OD450)” value turned out to be 1.95 OD450.
For B13, the “ELISA (OD450)” value was found to be 1.27 OD450.
In the case of B14, the “ELISA (OD450)” value was determined as 1.1 OD450.
On the same count and under the same terms, then B15, with 1.36 OD450; and B16, with 1.21 OD450.
The same measure, in the same setting: then B17, with 1.67 OD450.

For a further assay, the target named is T5, segment III of MSLN expressed on HEK293T cells (UniProt Q13421 487-598, limits assumed).
T5 construct: domain: segment III of MSLN; also called HEK293T MSLN-III cells; MSLN segment III protein overexpressing cell line
T5 sequence (Q13421 495-606 limits assumed): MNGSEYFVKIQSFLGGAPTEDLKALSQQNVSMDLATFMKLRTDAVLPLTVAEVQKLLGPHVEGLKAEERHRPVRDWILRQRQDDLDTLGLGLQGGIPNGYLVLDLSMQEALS
Description: flow cytometry on HEK293T cells expressing MSLN segment III, anti-human IgG PE secondary, fitted curve.
Consider B1, for which the EC50 is 3.39 nM.
The same measure, in the same setting: under B2 stands 6.24 nM.
On the same count and under the same terms, then B3, with 10.6 nM; and B4, with 4.95 nM.
The same measure, in the same setting: then B5, with 3.91 nM; and B6, with 4.15 nM.

The next assay has as its target T1, MSLN on SKOV3 and Aspc-1 tumor cells. The assay is described as follows: flow cytometry on Aspc-1 tumor cells, anti-human IgG PE secondary, fitted curve.
The molecule B1 yielded a half-maximal effective concentration (EC50) of 3.59 nM.
The same measure, in the same setting: then B2, with 2.79 nM; and B3, with 17.4 nM; and B4, with 5.31 nM.
Take B5: the EC50 was 4.25 nM.
In turn, B6 returned a 50% effective concentration (EC50) of 5.37 nM.

The target in a further assay is T2, MSLN·His protein. Description: SPR (Biacore), antibody captured on protein A, MSLN·His as analyte. Here is the method:
(1) Detection of affinity at protein level: the binding kinetics and affinity of heavy chain antibody to human MSLN·His antigen were determined using surface plasmon resonance (SPR). The purified antibody was flowed through the sensor chips pre-immobilized with protein A, and the antibody was captured by protein A. Then five different concentrations of MSLN·His protein were used as the mobile phase, and the binding time and dissociation time were 30 min and 60 min, respectively. Biacore Evaluation Software 2.0 (GE) was used to analyze the binding rate (kon, or ka), dissociation rate (koff, or kd) and equilibrium constant (KD). The rabbit antibody YP218, which binds to segment III of mesothelin, was selected as a positive control (Zhang et al., Sci Rep 2015, 21; 5:9928).
(In general: Surface plasmon resonance follows binding to a sensor surface in real time, without labels.)
As for B1, the affinity, expressed as Kd, was 0.07 nM; the dissociation rate constant (koff) (commonly the first-order rate constant of dissociation) amounted to 2.35e-05 s⁻¹; the kon (usually a measure of how fast the partners come together) was found to be 359000 M⁻¹ s⁻¹.
Taken in the same sequence, the figures for B2 were 0.04 nM, 5.37e-05 s⁻¹ and 1.4e+06 M⁻¹ s⁻¹.
Consider B3, for which the Kd (as a rule, the constant that tells how readily two partners part at equilibrium) is 2.1 nM; the koff was found to be 7.5e-05 s⁻¹; the kon amounted to 53700 M⁻¹ s⁻¹.
In the case of B18, the Kd was 0.264 nM, the koff came out at 1.82e-05 s⁻¹ and the association rate constant (kon) is 69000 M⁻¹ s⁻¹.
For B4, in that order: 0.49 nM, 0.000429 s⁻¹ and 882000 M⁻¹ s⁻¹.
Taken in the same sequence, the figures for B5 were 0.12 nM, 9.58e-05 s⁻¹ and 826000 M⁻¹ s⁻¹.
With B6, the Kd came to 0.09 nM, the koff was found to be 5.4e-05 s⁻¹ and the kon was determined as 592000 M⁻¹ s⁻¹.
